Here are results for 125 sequences from the supplement of paper PMC9112550, “Optimization of the antimicrobial peptide Bac7 by deep mutational scanning” (BMC Biology, 2022).

The test system of this data set is Escherichia coli TOP10. The data set can be described thus: shrunken log2 fold change of peptide-encoding DNA abundance (4.5 h post-induction vs induction); higher = less antimicrobial activity (less host growth inhibition). The conditions noted are these: time post-induction: 4.5 h; library: site-saturation at positions 5, 18, 19, 20.
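Further: peptides expressed intracellularly from a pBAD plasmid library in pooled LB shake-flask culture, induced with 0.3% L-arabinose, DNA abundance read by NGS, three biological replicates, DESeq2 with apeglm shrinkage.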

In the case of RRIRARPPRLPRPRPRPCHTPRP, the “shrunken log2 fold change” value turned out to be 0.0762.
For RRIRDRPPRLPRPRPRPIHWPRP the value was -0.18; for RRIRVRPPRLPRPRPRPDPVPRP, -0.00845.
For the sequence RRIRPRPPRLPRPRPRPCNAPRP, the “shrunken log2 fold change” value is -0.179.
As to RRIRPRPPRLPRPRPRPHHLPRP, the “shrunken log2 fold change” value was -0.0444.
For RRIRHRPPRLPRPRPRPCWTPRP the value was -0.237; for RRIRMRPPRLPRPRPRPFYYPRP, -0.527.
Then RRIRLRPPRLPRPRPRPFMRPRP, with 0.495; and RRIRARPPRLPRPRPRPGIEPRP, with 0.108; and RRIRKRPPRLPRPRPRPWIRPRP, with -0.336.
Take RRIRCRPPRLPRPRPRPTHTPRP: the “shrunken log2 fold change” value came out at 0.388.
For RRIRIRPPRLPRPRPRPNLVPRP the value was -0.175.
As to RRIRQRPPRLPRPRPRPGVDPRP, the “shrunken log2 fold change” value was 0.244.
Consider RRIRNRPPRLPRPRPRPTSDPRP, for which the “shrunken log2 fold change” value is -0.148.
With RRIRKRPPRLPRPRPRPYMCPRP, the “shrunken log2 fold change” value is -0.0998.
RRIRYRPPRLPRPRPRPRMTPRP: the “shrunken log2 fold change” value is -0.131.
For RRIRDRPPRLPRPRPRPHLAPRP the value was 0.302.
Take RRIRQRPPRLPRPRPRPTEGPRP: the “shrunken log2 fold change” value is -0.0332.
As for RRIRDRPPRLPRPRPRPMHCPRP, the “shrunken log2 fold change” value was -0.00112.
Then RRIRARPPRLPRPRPRPRNNPRP, with -0.101.
Then RRIRPRPPRLPRPRPRPTAQPRP, with 0.357; and RRIRCRPPRLPRPRPRPCMKPRP, with -0.368.
Take RRIRTRPPRLPRPRPRPCSQPRP: the “shrunken log2 fold change” value was -0.018.
For RRIRWRPPRLPRPRPRPGDMPRP the value was 0.344.
Then RRIRTRPPRLPRPRPRPNHVPRP, with -0.0538.
Then RRIRLRPPRLPRPRPRPQLFPRP, with 0.131.
RRIRPRPPRLPRPRPRPGMIPRP: the “shrunken log2 fold change” value is 0.0107.
For RRIRRRPPRLPRPRPRPAEDPRP the value was 0.987; for RRIRERPPRLPRPRPRPTWYPRP, -0.217.
Consider RRIRNRPPRLPRPRPRPNTCPRP, for which the “shrunken log2 fold change” value was -0.195.
As for RRIRNRPPRLPRPRPRPEYMPRP, the “shrunken log2 fold change” value was -0.0146.
Then RRIRVRPPRLPRPRPRPWPLPRP, with -0.183; and RRIRWRPPRLPRPRPRPMCLPRP, with -0.0933; and RRIRHRPPRLPRPRPRPVGYPRP, with 0.00996.
For RRIRNRPPRLPRPRPRPNPSPRP the value was -0.00451; for RRIRDRPPRLPRPRPRPLPIPRP, 0.162; for RRIRQRPPRLPRPRPRPSVGPRP, 0.119.
For RRIRYRPPRLPRPRPRPAHKPRP the value was 0.00824; for RRIRFRPPRLPRPRPRPGQYPRP, -0.0815.
Consider RRIRRRPPRLPRPRPRPYFHPRP, for which the “shrunken log2 fold change” value was -0.387.
For RRIRLRPPRLPRPRPRPPAWPRP the value was 0.98.
Then RRIRYRPPRLPRPRPRPKANPRP, with -0.512.
For RRIRKRPPRLPRPRPRPSHNPRP the value was -0.351.
Consider RRIRDRPPRLPRPRPRPYLPPRP, for which the “shrunken log2 fold change” value came to 0.00286.
For RRIRERPPRLPRPRPRPLHQPRP the value was -0.0505; for RRIRQRPPRLPRPRPRPVFHPRP, -0.107.
Then RRIRVRPPRLPRPRPRPPGIPRP, with 0.154; and RRIRARPPRLPRPRPRPYTEPRP, with -0.583; and RRIRWRPPRLPRPRPRPATHPRP, with 0.0538.
Then RRIRARPPRLPRPRPRPKRSPRP, with 0.427; and RRIRERPPRLPRPRPRPKKDPRP, with -0.346.
As to RRIRYRPPRLPRPRPRPRKFPRP, the “shrunken log2 fold change” value was -1.72.
For RRIRHRPPRLPRPRPRPKDSPRP the value was 0.0292.
For RRIRYRPPRLPRPRPRPSEYPRP the value was -0.431.
Then RRIRTRPPRLPRPRPRPFYCPRP, with -0.505; and RRIRRRPPRLPRPRPRPTDAPRP, with 0.198.
Turning to RRIRMRPPRLPRPRPRPDHWPRP, the “shrunken log2 fold change” value came to 0.617.
With RRIRCRPPRLPRPRPRPMLQPRP, the “shrunken log2 fold change” value turned out to be 0.0596.
For RRIRRRPPRLPRPRPRPRSKPRP the value was 0.29.
For RRIRYRPPRLPRPRPRPPMSPRP the value was -0.612.
Turning to RRIRQRPPRLPRPRPRPAIDPRP, the “shrunken log2 fold change” value stood at 0.0942.
For RRIRQRPPRLPRPRPRPFIEPRP the value was -0.0062.
For RRIRLRPPRLPRPRPRPMDQPRP the value was -0.0503.
As for RRIRDRPPRLPRPRPRPPKTPRP, the “shrunken log2 fold change” value is 0.257.
For RRIRTRPPRLPRPRPRPWACPRP the value was -0.151; for RRIRMRPPRLPRPRPRPVLCPRP, 0.182.
For RRIRKRPPRLPRPRPRPFQVPRP the value was 0.0377; for RRIRVRPPRLPRPRPRPLPDPRP, -0.0431; for RRIRYRPPRLPRPRPRPACHPRP, -0.453.
For RRIRGRPPRLPRPRPRPRNTPRP the value was 0.0904.
With RRIRPRPPRLPRPRPRPWIWPRP, the “shrunken log2 fold change” value was -0.186.
For RRIRKRPPRLPRPRPRPEMMPRP the value was 0.113.
For RRIRQRPPRLPRPRPRPTAQPRP the value was 0.0588; for RRIRNRPPRLPRPRPRPYFRPRP, -0.766.
For RRIRTRPPRLPRPRPRPCAVPRP the value was -0.262; for RRIRERPPRLPRPRPRPHPHPRP, -0.167.
For the sequence RRIRRRPPRLPRPRPRPFKAPRP, the “shrunken log2 fold change” value came to 0.182.
With RRIRFRPPRLPRPRPRPYMRPRP, the “shrunken log2 fold change” value is 0.00487.
Then RRIRFRPPRLPRPRPRPTQLPRP, with 0.364; and RRIRCRPPRLPRPRPRPILPPRP, with -0.287.
Then RRIRCRPPRLPRPRPRPEVWPRP, with 0.725; and RRIRDRPPRLPRPRPRPLHKPRP, with 0.0824.
Then RRIRVRPPRLPRPRPRPNCPPRP, with -0.0515; and RRIRARPPRLPRPRPRPGRGPRP, with 0.486; and RRIRKRPPRLPRPRPRPTQFPRP, with 1.1.
For the sequence RRIRVRPPRLPRPRPRPFTNPRP, the “shrunken log2 fold change” value is -0.0456.
Take RRIRCRPPRLPRPRPRPECGPRP: the “shrunken log2 fold change” value turned out to be 0.436.
For RRIRDRPPRLPRPRPRPNAMPRP, the “shrunken log2 fold change” value is -0.0158.
Then RRIRLRPPRLPRPRPRPMSIPRP, with -0.159; and RRIRGRPPRLPRPRPRPSFKPRP, with -0.0759; and RRIRTRPPRLPRPRPRPWGGPRP, with 0.439.
Then RRIRCRPPRLPRPRPRPHPVPRP, with -0.207.
For RRIRYRPPRLPRPRPRPDVQPRP the value was -0.0317; for RRIRSRPPRLPRPRPRPVLRPRP, 0.0904.
For RRIRFRPPRLPRPRPRPLQWPRP, the “shrunken log2 fold change” value was -0.0201.
For RRIRGRPPRLPRPRPRPPDSPRP the value was 0.952; for RRIRIRPPRLPRPRPRPIHDPRP, 2.93.
Then RRIRERPPRLPRPRPRPFNYPRP, with -0.273; and RRIRKRPPRLPRPRPRPEAHPRP, with 0.151.
Take RRIRVRPPRLPRPRPRPLTYPRP: the “shrunken log2 fold change” value is -0.356.
With RRIRIRPPRLPRPRPRPCNRPRP, the “shrunken log2 fold change” value is -0.425.
Then RRIRRRPPRLPRPRPRPVETPRP, with 0.181; and RRIRGRPPRLPRPRPRPPTKPRP, with 0.968; and RRIRLRPPRLPRPRPRPLATPRP, with 0.38.
Then RRIRHRPPRLPRPRPRPAYLPRP, with -0.323; and RRIRYRPPRLPRPRPRPNAIPRP, with -0.0737.
For RRIRGRPPRLPRPRPRPGQCPRP the value was 0.275.
In the case of RRIRQRPPRLPRPRPRPPTCPRP, the “shrunken log2 fold change” value was determined as 0.224.
Then RRIRHRPPRLPRPRPRPELEPRP, with -0.0141; and RRIRFRPPRLPRPRPRPPCFPRP, with -0.0777.
With RRIRLRPPRLPRPRPRPSSDPRP, the “shrunken log2 fold change” value was 0.128.
For RRIRQRPPRLPRPRPRPFVWPRP, the “shrunken log2 fold change” value stood at 0.049.
Consider RRIRGRPPRLPRPRPRPFSWPRP, for which the “shrunken log2 fold change” value was 0.353.
For the sequence RRIRLRPPRLPRPRPRPAWIPRP, the “shrunken log2 fold change” value turned out to be 0.0321.
For RRIRHRPPRLPRPRPRPRSQPRP the value was 0.136.
Then RRIRMRPPRLPRPRPRPDFWPRP, with 0.778; and RRIRCRPPRLPRPRPRPKDKPRP, with 0.401; and RRIRGRPPRLPRPRPRPSVIPRP, with 0.159.
Then RRIRWRPPRLPRPRPRPPTLPRP, with 0.315; and RRIRFRPPRLPRPRPRPFGGPRP, with -0.0524.
For RRIRQRPPRLPRPRPRPSNPPRP, the “shrunken log2 fold change” value was 0.0169.
Take RRIRYRPPRLPRPRPRPWAHPRP: the “shrunken log2 fold change” value is -0.324.
Then RRIRDRPPRLPRPRPRPPFNPRP, with -0.217; and RRIRCRPPRLPRPRPRPWMEPRP, with -0.344.
Then RRIRHRPPRLPRPRPRPPNVPRP, with -0.0106.
